Patent US12662540B2, “Compositions and methods for inhibition of MICA/B shedding” (DANA-FARBER CANCER INSTITUTE, INC., priority 2017, dated 2026)
“Also recorded” adds a separate entry of the source.

How the values were obtained:
[1] = tested on: A375 cells; experiment: NK cell cytotoxicity assay (51Cr release), human NK cells against human tumor cells; type: cell-based
Procedure: Human NK cells were isolated from fresh leukapheresis blood collars that had been generated by Brigham & Women's Hospital, Boston, from healthy donors. Samples were diluted with an equal volume of PBS and blood mononuclear cells were isolated by Ficoll density gradient centrifugation. Cells were washed with PBS, and NK cells were isolated by negative selection using the Human NK Cell Isolation Kit (130-092-657, Miltenyi Biotech) using an autoMACS system (Miltenyi Biotech). Enriched NK cells (purity of 50-90%) were then incubated with anti-CD56 (PE or APC conjugated) and anti-CD3 (FITC or Pacific Blue conjugated) (Biolegend) and sorted using a BD FACS Aria. Following sorting, NK cell purity was ˜99%. These cells were cultured for twelve hours in complete RPMI media supplemented with 300-1000 U/ml of recombinant human IL-2 (BD Pharmingen).
Target cells were labeled for 1 hour with 100 μCi of ^51[Cr] per 2×10^6 cells in 0.2 ml of media. Subsequently, cells were washed and plated in V-bottom 96-wells plates (5,000 target cells per well). To determine the experimental release, NK cells were added in an equal volume, but at different ratios. To determine maximum and spontaneous release, target cells were mixed with an equal volume of 2% Triton-X100 in PBS or an equal volume of media, respectively. Antibodies were added at a final concentration of 10 μg/ml.
For experiments shown in FIGS. 1E, 10, and 13E antibodies were added at the time of the killing assay. For FIGS. 3A-B, antibodies were added to tumor cells 48 hours prior to labelling with ^51[Cr] to inhibit MICAS shedding. The isotype control antibody for assays with human NK cells was recombinant human IgG1 Fc (BE0096, BioXcell). […] At the end of the incubation period, plates were centrifuged (2000 rpm, 5 minutes), part of the supernatant was collected, mixed with scintillation fluid, and radioactivity was quantified using a MicroBeta2 reader (Perkin Elmer). Specific killing was calculated using the following formula: 100×(Experimental release−Spontaneous release)/(Maximum release−Spontaneous release).

[2] = tested on: human NK cells; experiment: Intracellular interferon-γ production by NK cells co-cultured with tumor cells; type: cell-based; details: co-culture with tumor cells, antibody 10 μg/ml
Procedure: NK cells were co-cultured for 6 hours at a ratio of 5:1 with tumor cells in the presence of Brefeldin-A (Biolegend). After the incubation time, Fc receptors were blocked, cells stained with NK cell markers, stained further with a dead cell marker (Zombie Yellow, Biolegend), and subsequently processed for intracellular interferon-γ labeling. Briefly, cells were fixed with BD Cytofix/Cytoperm™ Fixation and Permeabilization Solution (BD Pharmingen), permeabilized with Permeabilization Wash Buffer (Biolegend), and stained with APC-conjugated anti-human interferon-γ (4S.B3, Biolegend) or appropriate isotype control. Fluorescence spectra were acquired using a LSR Fortessa flow cytometer and analyzed by FlowJo.

[3] = tested on: human NK cells; experiment: NK cell RNA-sequencing after co-culture with antibody-pretreated A375 cells; type: cell-based; details: 6 hours co-culture; A375 pretreated 48 hours
Procedure: Human NK cells were isolated from a healthy volunteer to ˜99% purity. These cells were pre-activated with 1,000 U/ml IL-2 overnight. A375 tumor cells were pre-treated with 10 μg/ml of 7C6-hIgG1 or isotype control (BioXcell BE0096) antibodies for 48 hours. Cells were then washed and NK cells were co-cultured with tumor cells for 6 hours in a 5:1 ratio. Subsequently, human NK cells were re-sorted and total RNA isolated with genomic DNA digestion with QIAGEN RNeasy RNA isolation kit (74134). RNA sequencing libraries were generated using the Kapa mRNAseq kit (KapaBiosystems). The libraries were analyzed by Next-Generation Sequencing and pooled barcoded samples were subjected to VIPER analysis. RNA levels were compared for NK cells from co-cultures treated with 7C6-hIgG1 versus isotype control antibodies. A cut-off of at least 1 Log2 fold change was applied to select genes that were differentially expressed. Gene set enrichment analysis (GSEA) was also performed in order to identify relevant molecular pathways for differentially expressed mRNAs.

[4] = tested on: A2058 melanoma cells; experiment: A2058 metastasis model (NSG mice, human NK cells); type: in vivo
Procedure: Human NK cell reconstitution of NSG mice was done similar to a previous report (26). Briefly, human NK cells were obtained from fresh blood collars, as described above. Cells were treated overnight with 300 U/ml of recombinant human IL-2 (BD Pharmingen), and 1.5×10^6NK cells were injected intravenously into NSG mice. NK cell survival was supported by intraperitoneal injection of 75,000 U of IL-2 (Peprotech) every other day. Human NK cells survived in NSG mice for approximately one week under these conditions (data not shown) and therefore the last IL-2 injection was given 7 days following NK cell transfer. Furthermore, one day after NK cell inoculation and the first injection of IL-2, NSG mice were also injected intravenously with 1×10^6 A2058 melanoma cells. Two days later, mice were treated with 200 μg 7C6-hIgG1 or isotype control (BioXcell) and again once per week. Mice were bled at multiple time points to measure shed MICA and other serum markers. Euthanasia was performed on day 30 following tumor cell inoculation, lungs were perfused with Indian ink (as described above), fixed in Fekete's solution, and the number of lung metastases was counted. Lungs processed for histology were not perfused but fixed in formalin. Livers were also collected, fixed in formalin solution and the number of metastases was counted, or processed for histology. Following removal of these tissues, mice were fixed in Bouin fixative and processed for necropsy by the Rodent Histopathology Core (Dana-Farber/Harvard Cancer Center). The analysis was performed by a pathologist unaware of the different experimental groups.
Macrophages were depleted by intravenous injection of 0.2 ml clodronate liposomes (Encapsula NanoSciences LLC). In the humanized and B16F10-MICA metastasis models, 0.2 ml of clodronate liposomes or control liposomes were injected i.v. (on the same day of tumor cell inoculation and then once weekly).

[5] = tested on: Kupffer cells; experiment: Analysis of liver macrophages in humanized metastasis model; type: in vivo, NSG mice; details: three weeks after tumor cell inoculation
Procedure: NSG mice were injected i.v with A2058 cells and treated with 7C6-hgG1 or isotype control antibodies as described above. Three weeks following tumor cell inoculation, mice were euthanized and livers were perfused with PBS through the portal vein. Livers were mechanically dissociated and cell suspensions passed through a 70 □ filter. […] Antibodies used for subsequent labeling were APC-CD45.2, APC-CD45.1, BV785-CD11b, BV421-F4/80, BV650-CD80, PE-CD86, FITC-Ly6C, PE-Cy7-Ly6G, PERCP-Cy5.5-CD16/CD32 and Zombie NIR. Cells were acquired in a Sony Spectral Analyzer and data were analyzed by FlowJo.

[6] = tested on: human macrophages; experiment: Inhibition of MICA shedding by macrophages; type: cell-based; details: acetylated-LDL, 24 hours, antibody 10 μg/ml
Procedure: PBMC were isolated from a leukapheresis collar obtained from a healthy donor, and monocytes were isolated by adherence to tissue culture plates (2 hour incubation). Non-adherent cells were then washed away and M-CSF was added at 100 ng/ml in RPMI-1640 media supplemented with 10% FBS, Glutamax and Penicillin/Streptomycin. Visual inspection of cell morphology on day 5 confirmed that monocytes had differentiated into macrophages. Macrophages were treated for 24 hours in 96-well plates with different concentrations of acetylated LDL as well as MICA antibodies (10 μg/ml). Shed MICA in supernatants was examined by ELISA (Abcam) and cell surface density of MICA/B was quantified by flow cytometry.

B1: 7C6-hIgG1: recombinant 7C6 with Fc segment replaced by human IgG1 (antibody, V domains shown)
VH: QIQLVQSGPELKKPGETVKVSCKASGYMFTNYAMNWVKQAPEKGLKWMGWINTHTGDPTYADDFKGRIAFSLETSASTAYLQINNLKNEDTATYFCVRTYGNYAMDYWGQGTSVTVSS
VL: DIQMTQTTSSLSASLGDRVTISCSASQDISNYLNWYQQKPDGTVKLLIYDTSILHLGVPSRFSGSGSGTDYSLTISNLEPEDIATYYCQQYSKFPRTFGGGTTLEIK
[1]; A375 treated 48 hours, 4 hour co-culture with human NK cells
  NK cell-mediated cytotoxicity against antibody-pretreated A375 cells: triggered stronger NK cell-mediated cytotoxicity than the 7C6-hIgG1-DANA mutant
[1]; human NK cells, antibody added at time of killing assay (10 μg/ml, 66.7 nM)
  NK cell mediated cytotoxicity against human tumor cells: enabled strong NK cell mediated killing of human tumor cells; also recorded: exhibit cytotoxicity against A375 cells
[2]
  IFNγ (cytokine) production by human NK cells: produced higher levels of IFNγ
[3]
  gene expression by human NK cells: upregulated genes associated with NK cell activation and effector functions
[4]; NSG mice reconstituted with human NK cells, day 30
  number of lung metastases: had fewer lung metastases; also recorded: reduces number of lung metastases in the presence of human NK cells
[4]; clodronate liposomes, no NK cell reconstitution, 3 weeks
  activity against liver metastases after macrophage depletion: abrogated the therapeutic activity
[4]; day 30
  number of organs with metastases (metastatic load): reduced the number of organs with metastases; also recorded: significantly reduced metastatic load in the absence of transferred NK cells
[4]; mice reconstituted with human NK cells
  survival: significant survival benefit; also recorded: increases the survival of mice
[4]; with or without NK cell transfer, day 30
  number of liver metastases: substantially reduced the number of liver metastases even without NK cell transfer; also recorded: shows significant therapeutic activity against liver metastases even in the absence of NK cells
[5]
  CD80 expression by Kupffer cells: higher surface levels of the CD80 activation marker; also recorded: increased expression of CD80 by Kupffer cells
[6]
  MICA and MICB surface levels on macrophages: increased MICA and MICB surface levels on macrophages
  MICA shedding by macrophages: inhibited MICA shedding
